{"source": "paper PMC11800616", "about": "(Mobile DNA, 2025)", "key": {"[1]": {"target": "T1, LINE-1 ORF2p (translation product of L1 ORF2), endogenous (human (endogenous in N2102Ep and …, UniProt O00370 1-1275))", "T1 sequence (O00370 whole entry)": "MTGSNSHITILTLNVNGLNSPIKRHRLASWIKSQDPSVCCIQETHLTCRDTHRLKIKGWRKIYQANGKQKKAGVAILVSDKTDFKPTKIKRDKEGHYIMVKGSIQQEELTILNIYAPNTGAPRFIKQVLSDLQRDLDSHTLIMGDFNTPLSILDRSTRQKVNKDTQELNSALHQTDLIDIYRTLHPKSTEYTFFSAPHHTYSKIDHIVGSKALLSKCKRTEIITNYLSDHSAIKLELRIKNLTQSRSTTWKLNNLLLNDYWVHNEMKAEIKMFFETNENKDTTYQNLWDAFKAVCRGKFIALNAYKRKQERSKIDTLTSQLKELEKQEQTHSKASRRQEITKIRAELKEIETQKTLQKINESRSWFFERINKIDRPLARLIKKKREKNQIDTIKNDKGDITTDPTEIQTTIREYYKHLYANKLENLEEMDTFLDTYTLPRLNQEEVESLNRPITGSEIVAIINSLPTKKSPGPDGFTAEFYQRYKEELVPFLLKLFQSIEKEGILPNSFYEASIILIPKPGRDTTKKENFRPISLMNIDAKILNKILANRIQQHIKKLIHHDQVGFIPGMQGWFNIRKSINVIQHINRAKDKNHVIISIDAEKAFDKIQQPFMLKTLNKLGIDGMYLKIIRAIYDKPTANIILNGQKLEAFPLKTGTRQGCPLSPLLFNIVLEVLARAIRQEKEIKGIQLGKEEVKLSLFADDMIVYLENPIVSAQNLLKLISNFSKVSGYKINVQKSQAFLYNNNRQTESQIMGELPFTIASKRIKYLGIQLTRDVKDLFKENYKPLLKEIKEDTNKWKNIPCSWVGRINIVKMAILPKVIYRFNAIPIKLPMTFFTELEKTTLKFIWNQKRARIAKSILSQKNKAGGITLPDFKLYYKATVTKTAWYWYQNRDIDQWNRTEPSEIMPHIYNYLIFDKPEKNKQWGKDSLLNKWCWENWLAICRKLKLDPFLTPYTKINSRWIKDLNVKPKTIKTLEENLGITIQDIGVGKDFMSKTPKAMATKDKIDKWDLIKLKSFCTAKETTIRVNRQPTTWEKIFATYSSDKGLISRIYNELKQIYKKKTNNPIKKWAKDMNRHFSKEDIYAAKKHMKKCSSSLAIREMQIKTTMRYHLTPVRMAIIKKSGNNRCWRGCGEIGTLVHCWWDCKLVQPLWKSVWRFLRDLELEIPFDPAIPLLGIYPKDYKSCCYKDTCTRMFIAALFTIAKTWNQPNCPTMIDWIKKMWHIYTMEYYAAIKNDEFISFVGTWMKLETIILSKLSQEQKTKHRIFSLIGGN", "assay": "affinity purification with mass spectrometry"}, "[2]": {"target": "T1, LINE-1 ORF2p (translation product of L1 …)", "assay": "affinity purification with mass spectrometry", "remark": "listed apart in the source"}}, "note": "Read-outs that look alike come from different tables or passages of the source.", "data": [{"binder": "LINE-1 ORF1p (translation product of L1 ORF1), endogenous (natural protein) MGKKQNRKTGNSKTQSASPPPKERSSSPATEQSWMENDFDELREEGFRRSNYSELREDIQTKGKEVENFEKNLEECITRITNTEKCLKELMELKTKARELREECRSLRSRCDQLEERVSAMEDEMNEMKREGKFREKRIKRNEQSLQEIWDYVKRPNLRLIGVPESDVENGTKLENTLQDIIQENFPNLARQANVQIQEIQRTPQRYSSRRATPRHIIVRFTKVEMKEKMLRAAREKGRVTLKGKPIRLTADLSAETLQARREWGPIFNILKEKNFQPRISYPAKLSFISEGEIKYFIDKQMLRDFVTTRPALKELLKEALNMERNNRYQPLQNHAKM", "values": [{"measurement": "ORF1p:ORF2p molar ratio in the affinity enriched fraction", "setting": "[1]", "value": "~184 molar ratio (ORF1p per ORF2p)"}, {"measurement": "ORF1p:ORF2p molar ratio in the affinity enriched fraction", "setting": "[2]", "value": "~279 molar ratio (ORF1p per ORF2p)"}]}]}
